# Reference: IntAct's records for PubMed 22797597
# B1: TRAF2 and NCK-interacting protein kinase (Homo sapiens), Q9UKE5 (parent)
# chain: MASDSPARSLDEIDLSALRDPAGIFELVELVGNGTYGQVYKGRHVKTGQLAAIKVMDVTGDEEEEIKQEINMLKKYSHHRNIATYYGAFIKKNPPGMDDQLWLVMEFCGAGSVTDLIKNTKGNTLKEEWIAYICREILRGLSHLHQHKVIHRDIKGQNVLLTENAEVKLVDFGVSAQLDRTVGRRNTFIGTPYWMAPEVIACDENPDATYDFKSDLWSLGITAIEMAEGAPPLCDMHPMRALFLIPRNPAPRLKSKKWSKKFQSFIESCLVKNHSQRPATEQLMKHPFIRDQPNERQVRIQLKDHIDRTKKKRGEKDETEYEYSGSEEEEEENDSGEPSSILNLPGESTLRRDFLRLQLANKERSEALRRQQLEQQQRENEEHKRQLLAERQKRIEEQKEQRRRLEEQQRREKELRKQQEREQRRHYEEQMRREEERRRAEHEQEYIRRQLEEEQRQLEILQQQLLHEQALLLEYKRKQLEEQRQAERLQRQLKQERDYLVSLQHQRQEQRPVEKKPLYHYKEGMSPSEKPAWAKEVEERSRLNRQSSPAMPHKVANRISDPNLPPRSESFSISGVQPARTPPMLRPVDPQIPHLVAVKSQGPALTASQSVHEQPTKGLSGFQEALNVTSHRVEMPRQNSDPTSENPPLPTRIEKFDRSSWLRQEEDIPPKVPQRTTSISPALARKNSPGNGSALGPRLGSQPIRASNPDLRRTEPILESPLQRTSSGSSSSSSTPSSQPSSQGGSQPGSQAGSSERTRVRANSKSEGSPVLPHEPAKVKPEESRDITRPSRPASYKKAIDEDLTALAKELRELRIEETNRPMKKVTDYSSSSEESESSEEEEEDGESETHDGTVAVSDIPRLIPTGAPGSNEQYNVGMVGTHGLETSHADSFSGSISREGTLMIRETSGEKKRSGHSDSNGFAGHINLPDLVQQSHSPAGTPTEGLGRVSTHSQEMDSGTEYGMGSSTKASFTPFVDPRVYQTSPTDEDEEDEESSAAALFTSELLRQEQAKLNEARKISVVNVNPTNIRPHSDTPEIRKYKKRFNSEILCAALWGVNLLVGTENGLMLLDRSGQGKVYNLINRRRFQQMDVLEGLNVLVTISGKKNKLRVYYLSWLRNRILHNDPEVEKKQGWITVGDLEGCIHYKVVKYERIKFLVIALKNAVEIYAWAPKPYHKFMAFKSFADLQHKPLLVDLTVEEGQRLKVIFGSHTGFHVIDVDSGNSYDIYIPSHIQGNITPHAIVILPKTDGMEMLVCYEDEGVYVNTYGRITKDVVLQWGEMPTSVAYIHSNQIMGWGEKAIEIRSVETGHLDGVFMHKRAQRLKFLCERNDKVFFASVRSGGSSQVFFMTLNRNSMMNW
# Variants of: B1
# Conditions: with STK26, Q9P289-1
# STK26, Q9P289-1, sequence (Q9P289 whole entry, looked up): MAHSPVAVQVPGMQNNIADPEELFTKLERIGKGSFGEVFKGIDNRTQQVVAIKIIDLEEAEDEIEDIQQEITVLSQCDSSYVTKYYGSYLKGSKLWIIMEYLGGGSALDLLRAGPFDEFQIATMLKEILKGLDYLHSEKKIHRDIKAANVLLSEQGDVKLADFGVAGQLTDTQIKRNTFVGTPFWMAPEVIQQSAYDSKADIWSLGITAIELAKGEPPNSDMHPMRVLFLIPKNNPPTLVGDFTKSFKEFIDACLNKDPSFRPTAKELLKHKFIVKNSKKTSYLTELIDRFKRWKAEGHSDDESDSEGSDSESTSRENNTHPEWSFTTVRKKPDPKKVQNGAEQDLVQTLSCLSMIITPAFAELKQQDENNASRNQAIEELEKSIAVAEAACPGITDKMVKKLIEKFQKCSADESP
row,effect of a mutation on the interaction,Variant
1,increasing interaction strength,K54A
2,increasing interaction strength,R152A;D153A
